Measured values as given in patent publication US20030129296A1.

Tests used:
[1] = biological target: Cy3-labeled mouse monoclonal antibody (Amersham) (mouse); experiment: fluorescence imaging of 0.8 µm capture particles on epoxy-hydrogel slides; dilution series of the Cy3-labeled target, overnight incubation
[2] = biological target: mouse IgG labeled with Alexa Fluor 488 (Molecular Probes, Inc., A-11243 anti-biotin, mouse monoclonal 2F5, Alexa Fluor 488 conjugate) (mouse); experiment: fluorescence imaging of film-immobilized capture particles; labeled target at 1 nM, 2 h
[3] = biological target: mouse IgG labeled with Alexa Fluor 488 (Molecular Probes, Inc., A-11243 anti-biotin, mouse monoclonal 2F5, Alexa Fluor 488 conjugate) (mouse); experiment: fluorescence imaging of film-immobilized capture particles; labeled target at 10 nM, 2 h
[4] = biological target: mouse IgG labeled with Alexa Fluor 488 (Molecular Probes, Inc., A-11243 anti-biotin, mouse monoclonal 2F5, Alexa Fluor 488 conjugate) (mouse); experiment: fluorescence imaging of film-immobilized capture particles; labeled target at 100 nM, 2 h
[5] = biological target: mouse IgG labeled with Alexa Fluor 488 (Molecular Probes, Inc., A-11243 anti-biotin, mouse monoclonal 2F5, Alexa Fluor 488 conjugate) (mouse); experiment: ratio of particle fluorescence to film background fluorescence; labeled target at 1 nM, 2 h
[6] = biological target: mouse IgG labeled with Alexa Fluor 488 (Molecular Probes, Inc., A-11243 anti-biotin, mouse monoclonal 2F5, Alexa Fluor 488 conjugate) (mouse); experiment: ratio of particle fluorescence to film background fluorescence; labeled target at 10 nM, 2 h
[7] = biological target: mouse IgG labeled with Alexa Fluor 488 (Molecular Probes, Inc., A-11243 anti-biotin, mouse monoclonal 2F5, Alexa Fluor 488 conjugate) (mouse); experiment: ratio of particle fluorescence to film background fluorescence; labeled target at 100 nM, 2 h
[8] = biological target: mouse IgG labeled with Alexa Fluor 488 (Molecular Probes, Inc., A-11243 anti-biotin, mouse monoclonal 2F5, Alexa Fluor 488 conjugate) (mouse); experiment: net median particle fluorescence divided by that of the blank (0 nM) particles; labeled target at 1 nM, 2 h
[9] = biological target: mouse IgG labeled with Alexa Fluor 488 (Molecular Probes, Inc., A-11243 anti-biotin, mouse monoclonal 2F5, Alexa Fluor 488 conjugate) (mouse); experiment: net median particle fluorescence divided by that of the blank (0 nM) particles; labeled target at 10 nM, 2 h
[10] = biological target: mouse IgG labeled with Alexa Fluor 488 (Molecular Probes, Inc., A-11243 anti-biotin, mouse monoclonal 2F5, Alexa Fluor 488 conjugate) (mouse); experiment: net median particle fluorescence divided by that of the blank (0 nM) particles; labeled target at 100 nM, 2 h
[11] = biological target: mouse IgG labeled with Alexa Fluor 488 (Molecular Probes, Inc., A-11243 anti-biotin, mouse monoclonal 2F5, Alexa Fluor 488 conjugate) (mouse); experiment: fluorescence imaging of film-immobilized capture particles, film background subtracted; labeled target at 1 nM, 2 h
[12] = biological target: mouse IgG labeled with Alexa Fluor 488 (Molecular Probes, Inc., A-11243 anti-biotin, mouse monoclonal 2F5, Alexa Fluor 488 conjugate) (mouse); experiment: fluorescence imaging of film-immobilized capture particles, film background subtracted; labeled target at 10 nM, 2 h
[13] = biological target: mouse IgG labeled with Alexa Fluor 488 (Molecular Probes, Inc., A-11243 anti-biotin, mouse monoclonal 2F5, Alexa Fluor 488 conjugate) (mouse); experiment: fluorescence imaging of film-immobilized capture particles, film background subtracted; labeled target at 100 nM, 2 h

0.8-µm-diameter particles coated with goat-anti-mouse antibody
detection level [1]: 1 pM

goat anti-mouse IgG(Fc) coated particles, 3.2 µm in diameter (Spherotech, Inc., MPFc-30-5) (antibody)
Particle Fluorescence Rate, Average [2]: 29.6 cps
Particle Fluorescence Rate, Maximum [2]: 62.6 cps
Particle Fluorescence Rate, Median [2]: 28.1 cps
Particle Fluorescence Rate, Minimum [2]: 14.8 cps
Particle Fluorescence Rate, Average [3]: 44.5 cps
Particle Fluorescence Rate, Maximum [3]: 66.2 cps
Particle Fluorescence Rate, Median [3]: 46.4 cps
Particle Fluorescence Rate, Minimum [3]: 12 cps
Particle Fluorescence Rate, Average [4]: 50.7 cps
Particle Fluorescence Rate, Maximum [4]: 74.1 cps
Particle Fluorescence Rate, Median [4]: 50.8 cps
Particle Fluorescence Rate, Minimum [4]: 34.1 cps
MPF/FBF [5]: 5.97
MPF/FBF [6]: 7.45
MPF/FBF [7]: 6.41
MPF/MPF0 [8]: 58.2
MPF/MPF0 [9]: 99.5
MPF/MPF0 [10]: 107
Net Median Particle Fluorescence, MPF [11]: 23 cps
Net Median Particle Fluorescence, MPF [12]: 40 cps
Net Median Particle Fluorescence, MPF [13]: 43 cps
